{"source": "patent US20240270846A1", "about": "(published 2024)"}
{"biological_target": "T1, CD3 epsilon homodimer protein (UniProt P07766 23-126)", "T1 construct": "Immobilized on Sensor chip CM4 by amine coupling; construct not described; also called CD3 (CD3 epsilon)", "T1 sequence (P07766 23-126)": "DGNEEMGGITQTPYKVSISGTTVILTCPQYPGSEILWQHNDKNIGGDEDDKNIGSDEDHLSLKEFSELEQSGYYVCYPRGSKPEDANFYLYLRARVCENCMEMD", "test": "SPR Biacore T200, CD3 epsilon homodimer on CM4 chip, antibody as analyte;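 further: Amine-coupled CD3 epsilon homodimer, run at 25 °C in HBS-EP+ buffer, ratio is bound amount of each single-residue H chain variant over that of the parent antibody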"}
{"binder": "CE115HA000 D101Y one-arm antibody (antibody, human IgG1, kappa, L234A L235A, N297A, name in Kabat numbering, one-arm antibody (one Fab)) heavy: QVQLVESGGGVVQPGRSLRLSCAASGFTFSNAWMHWVRQAPGKGLEWVAQIKAKSNNYATYYAESVKGRFTISRDDSKNSLYLQMNSLKTEDTAVYYCRYVHYGAYYGVYAWGQGTTVTVSSASTKGPSVFPLAPSSKSTSGGTAALGCLVKDYFPEPVTVSWNSGALTSGVHTFPAVLQSSGLYSLSSVVTVPSSSLGTQTYICNVNHKPSNTKVDKKVEPKSCDKTHTCPPCPAPEAAGGPSVFLFPPKPKDTLMISRTPEVTCVVVDVSHEDPEVKFNWYVDGVEVHNAKTKPREEQYASTYRVVSVLTVLHQDWLNGKEYKCKVSNKALPAPIEKTISKAKGQPREPQVYTLPPSRCELTKNQVSLSCAVKGFYPSDIAVEWESNGQPENNYKTTPPVLDSDGSFFLVSKLTVDKSRWQQGNVFSCSVMHEALHNHYTQKSLSLSPDYKDDDDK EPKSSDKTHTCPPCPAPELLGGPSVFLFPPKPKDTLMISRTPEVTCVVVDVSHEDPEVKFNWYVDGVEVHNAKTKPREEQYNSTYRVVSVLTVLHQDWLNGKEYKCKVSNKALPAPIEKTISKAKGQPREPQVCTLPPSRDELTKNQVSLWCLVKGFYPSDIAVEWESNGQPENNYKTTPPVLDSDGSFFLYSKLTVDKSRWQQGNVFSCSVMHEALHNRYTQKSLSLSP light: DIVMTQSPLSLPVTPGEPASISCRSSQSLVHSNRNTYLHWYQQKPGQAPRLLIYKVSNRFSGVPDRFSGSGSGTDFTLKISRVEAEDVGVYYCGQGTQVPYTFGQGTKLEIKRTVAAPSVFIFPPSDEQLKSGTASVVCLLNNFYPREAKVQWKVDNALQSGNSQESVTEQDSKDSTYSLSSTLTLSKADYEKHKVYACEVTHQGLSSPVTKSFNRGEC", "ratio of amounts bound (Y/X vs CE115HA000)": 0.49}
{"binder": "CE115HA000 E61P one-arm antibody (antibody, human IgG1, kappa, L234A L235A, N297A, name in Kabat numbering, one-arm antibody (one Fab)) heavy: QVQLVESGGGVVQPGRSLRLSCAASGFTFSNAWMHWVRQAPGKGLEWVAQIKAKSNNYATYYAPSVKGRFTISRDDSKNSLYLQMNSLKTEDTAVYYCRYVHYGAYYGVDAWGQGTTVTVSSASTKGPSVFPLAPSSKSTSGGTAALGCLVKDYFPEPVTVSWNSGALTSGVHTFPAVLQSSGLYSLSSVVTVPSSSLGTQTYICNVNHKPSNTKVDKKVEPKSCDKTHTCPPCPAPEAAGGPSVFLFPPKPKDTLMISRTPEVTCVVVDVSHEDPEVKFNWYVDGVEVHNAKTKPREEQYASTYRVVSVLTVLHQDWLNGKEYKCKVSNKALPAPIEKTISKAKGQPREPQVYTLPPSRCELTKNQVSLSCAVKGFYPSDIAVEWESNGQPENNYKTTPPVLDSDGSFFLVSKLTVDKSRWQQGNVFSCSVMHEALHNHYTQKSLSLSPDYKDDDDK EPKSSDKTHTCPPCPAPELLGGPSVFLFPPKPKDTLMISRTPEVTCVVVDVSHEDPEVKFNWYVDGVEVHNAKTKPREEQYNSTYRVVSVLTVLHQDWLNGKEYKCKVSNKALPAPIEKTISKAKGQPREPQVCTLPPSRDELTKNQVSLWCLVKGFYPSDIAVEWESNGQPENNYKTTPPVLDSDGSFFLYSKLTVDKSRWQQGNVFSCSVMHEALHNRYTQKSLSLSP light: DIVMTQSPLSLPVTPGEPASISCRSSQSLVHSNRNTYLHWYQQKPGQAPRLLIYKVSNRFSGVPDRFSGSGSGTDFTLKISRVEAEDVGVYYCGQGTQVPYTFGQGTKLEIKRTVAAPSVFIFPPSDEQLKSGTASVVCLLNNFYPREAKVQWKVDNALQSGNSQESVTEQDSKDSTYSLSSTLTLSKADYEKHKVYACEVTHQGLSSPVTKSFNRGEC", "ratio of amounts bound (Y/X vs CE115HA000)": 1.07}
{"binder": "CE115HA000 G98A one-arm antibody (antibody, human IgG1, kappa, L234A L235A, N297A, name in Kabat numbering, one-arm antibody (one Fab)) heavy: QVQLVESGGGVVQPGRSLRLSCAASGFTFSNAWMHWVRQAPGKGLEWVAQIKAKSNNYATYYAESVKGRFTISRDDSKNSLYLQMNSLKTEDTAVYYCRYVHYAAYYGVDAWGQGTTVTVSSASTKGPSVFPLAPSSKSTSGGTAALGCLVKDYFPEPVTVSWNSGALTSGVHTFPAVLQSSGLYSLSSVVTVPSSSLGTQTYICNVNHKPSNTKVDKKVEPKSCDKTHTCPPCPAPEAAGGPSVFLFPPKPKDTLMISRTPEVTCVVVDVSHEDPEVKFNWYVDGVEVHNAKTKPREEQYASTYRVVSVLTVLHQDWLNGKEYKCKVSNKALPAPIEKTISKAKGQPREPQVYTLPPSRCELTKNQVSLSCAVKGFYPSDIAVEWESNGQPENNYKTTPPVLDSDGSFFLVSKLTVDKSRWQQGNVFSCSVMHEALHNHYTQKSLSLSPDYKDDDDK EPKSSDKTHTCPPCPAPELLGGPSVFLFPPKPKDTLMISRTPEVTCVVVDVSHEDPEVKFNWYVDGVEVHNAKTKPREEQYNSTYRVVSVLTVLHQDWLNGKEYKCKVSNKALPAPIEKTISKAKGQPREPQVCTLPPSRDELTKNQVSLWCLVKGFYPSDIAVEWESNGQPENNYKTTPPVLDSDGSFFLYSKLTVDKSRWQQGNVFSCSVMHEALHNRYTQKSLSLSP light: DIVMTQSPLSLPVTPGEPASISCRSSQSLVHSNRNTYLHWYQQKPGQAPRLLIYKVSNRFSGVPDRFSGSGSGTDFTLKISRVEAEDVGVYYCGQGTQVPYTFGQGTKLEIKRTVAAPSVFIFPPSDEQLKSGTASVVCLLNNFYPREAKVQWKVDNALQSGNSQESVTEQDSKDSTYSLSSTLTLSKADYEKHKVYACEVTHQGLSSPVTKSFNRGEC", "ratio of amounts bound (Y/X vs CE115HA000)": 1.1}
{"binder": "CE115HA000 E61Q one-arm antibody (antibody, human IgG1, kappa, L234A L235A, N297A, name in Kabat numbering, one-arm antibody (one Fab)) heavy: QVQLVESGGGVVQPGRSLRLSCAASGFTFSNAWMHWVRQAPGKGLEWVAQIKAKSNNYATYYAQSVKGRFTISRDDSKNSLYLQMNSLKTEDTAVYYCRYVHYGAYYGVDAWGQGTTVTVSSASTKGPSVFPLAPSSKSTSGGTAALGCLVKDYFPEPVTVSWNSGALTSGVHTFPAVLQSSGLYSLSSVVTVPSSSLGTQTYICNVNHKPSNTKVDKKVEPKSCDKTHTCPPCPAPEAAGGPSVFLFPPKPKDTLMISRTPEVTCVVVDVSHEDPEVKFNWYVDGVEVHNAKTKPREEQYASTYRVVSVLTVLHQDWLNGKEYKCKVSNKALPAPIEKTISKAKGQPREPQVYTLPPSRCELTKNQVSLSCAVKGFYPSDIAVEWESNGQPENNYKTTPPVLDSDGSFFLVSKLTVDKSRWQQGNVFSCSVMHEALHNHYTQKSLSLSPDYKDDDDK EPKSSDKTHTCPPCPAPELLGGPSVFLFPPKPKDTLMISRTPEVTCVVVDVSHEDPEVKFNWYVDGVEVHNAKTKPREEQYNSTYRVVSVLTVLHQDWLNGKEYKCKVSNKALPAPIEKTISKAKGQPREPQVCTLPPSRDELTKNQVSLWCLVKGFYPSDIAVEWESNGQPENNYKTTPPVLDSDGSFFLYSKLTVDKSRWQQGNVFSCSVMHEALHNRYTQKSLSLSP light: DIVMTQSPLSLPVTPGEPASISCRSSQSLVHSNRNTYLHWYQQKPGQAPRLLIYKVSNRFSGVPDRFSGSGSGTDFTLKISRVEAEDVGVYYCGQGTQVPYTFGQGTKLEIKRTVAAPSVFIFPPSDEQLKSGTASVVCLLNNFYPREAKVQWKVDNALQSGNSQESVTEQDSKDSTYSLSSTLTLSKADYEKHKVYACEVTHQGLSSPVTKSFNRGEC", "ratio of amounts bound (Y/X vs CE115HA000)": 1.07}
